In article PMC5846730:

Molecular target: GbnD4 DHD domain (Burkholderia gladioli BCC0238)
Experiment: NMR titration

GbnD5 apo-DH-ACP di-domain (domain or fragment)
average apparent KD of the Val19-Glu30 and Ala49-Arg60 regions: 7 to 15 µM
